# Test results taken from US20100169988A1 (published 2010).
# B1: ATP synthase alpha chain; mitochondrial precursor (enzyme, mouse, UniProt Q03265 44-553, looked up)
# chain: QKTGTAEMSSILEERILGADTSVDLEETGRVLSIGDGIARVHGLRNVQAEEMVEFSSGLKGMSLNLEPDNVGVVVFGNDKLIKEGDVVKRTGAIVDVPVGEELLGRVVDALGNAIDGKGPIGSKTRRRVGLKAPGIIPRISVREPMQTGIKAVDSLVPIGRGQRELIIGDRQTGKTSIAIDTIINQKRFNDGTDEKKKLYCIYVAIGQKRSTVAQLVKRLTDADAMKYTIVVSATASDAAPLQYLAPYSGCSMGEYFRDNGKHALIIYDDLSKQAVAYRQMSLLLRRPPGREAYPGDVFYLHSRLLERAAKMNDSFGGGSLTALPVIETQAGDVSAYIPTNVISITDGQIFLETELFYKGIRPAINVGLSVSRVGSAAQTRAMKQVAGTMKLELAQYREVAAFAQFGSDLDAATQQLLSRGVRLTELLKQGQYSPMAIEEQVAVIYAGVRGYLDKLEPSKITKFENAFLSHVISQHQSLLGNIRSDGKISEQSDAKLKEIVTNFLAGFEP
# B2: Tubulin beta-4 chain (other, mouse, UniProt Q9D6F9 1-444, looked up)
# chain: MREIVHLQAGQCGNQIGAKFWEVISDEHGIDPTGTYHGDSDLQLERINVYYNEATGGNYVPRAVLVDLEPGTMDSVRSGPFGQIFRPDNFVFGQSGAGNNWAKGHYTEGAELVDAVLDVVRKEAESCDCLQGFQLTHSLGGGTGSGMGTLLISKIREEFPDRIMNTFSVVPSPKVSDTVVEPYNATLSVHQLVENTDETYCIDNEALYDICFRTLKLTTPTYGDLNHLVSATMSGVTTCLRFPGQLNADLRKLAVNMVPFPRLHFFMPGFAPLTSRGSQQYRALTVPELTQQMFDAKNMMAACDPRHGRYLTVAAVFRGRMSMKEVDEQMLSVQSKNSSYFVEWIPNNVKTAVCDIPPRGLKMAATFIGNSTAIQELFKRISEQFTAMFRRKAFLHWYTGEGMDEMEFTEAESNMNDLVSEYQQYQDATAEEGEFEEEAEEEVA
# notes: also called TBB4_MOUSE
# B3: Sodium/potassium-transporting ATPase alpha-2 chain precursor (Sodium pump 2) (Na+/K+ ATPase 2) (Alpha(+)) (enzyme)
# chain: not shown
# notes: also called AT1A2_MOUSE
# B4: Neuronal membrane glycoprotein M6-b (M6b) (other, mouse, UniProt P35803 1-328, looked up)
# chain: MKPAMETAAEENTEQSQERKVNSRAEMEIGRYHWMYPGSKNHQYRPVPNLGDRAGPLSSPGCFECCIKCLGGVPYASLVATILCFSGVALFCGCGHVALAGTVAILEQHFSTNTSDHALLSEVIQLMQYVIYGIASFFFLYGIILLAEGFYTTSAVKELHGEFKTTACGRCISGMFVFLTYVLGVAWLGVFGFSAVPVFMFYNIWSTCEVIKSPQSNGTSGVEQICVDVRQYGIIPWNAFPGKICGSALENICNTNEFYMSYHLFIVACAGAGATVIALIHFLMILSSNWAYLKDASKMQAYQDIKAKEEQELQDIQSRSKEQLNSYT
# notes: also called Proteolipid protein PLP/dm-20
# B5: Myosin light chain kinase 2, skeletal/cardiac muscle (MLCK2) (Fragment) (enzyme, mouse, UniProt Q8VCR8 1-613, looked up)
# chain: MTTENGAVELGSQSLSTEQTPKAAAGDGPSASEKEPSAPATEKDLSPPNAKKDPGAPDPKNNPDPPSLKKDPAKAPGPEKKGDPVPASASSQGPSGEGDGGGGPAEGSEGPPAALPLPTATAEASIQKLDPTQAPSGNQGSGEAKAGKKAAECREAGRRGSPAFLHSPSCPAIISCSEKTLAVKPLSETTDLVFTGVSVTPDPQDPGPVKAGGTNALAEKKKEEAEKASGQAGQAKVQGDTPQRIGFQAVPSERVEVGQALCLTAREEDCFQILDDCPPPPAPFPHRIVELRTGNVNSEFSMNSKEALGGGKFGAVCTCTERATGLKLAAKVIKKQTPKDKEMVLLEIEVMNQLNHRNLIQLYAAIETSHEIILFMEYIEGGELFERIVDEDYHLTEVDTMVFVRQICDGILFMHKMRVLHLDLKPENILCVNTTGHLVKIIDFGLARRYNPNEKLKVNFGTPEFLSPEVVNYDQISDKTDMWSLGVITYMLLSGLSPFLGDDDTETLNNVLSANWYFDEETFEAVSDEAKDFVSNLLTKDQSARMSAEQCLAHPWLNNLAEKAKRCNRRLKSQILLKKYLMKRRWKKNFIAVSAANRFKKISSSGALMALGV
# notes: also called MYLK2_MOUSE
# B6: 14-3-3 protein theta (14-3-3 protein tau) (other, mouse, UniProt P68254 1-245, looked up)
# chain: MEKTELIQKAKLAEQAERYDDMATCMKAVTEQGAELSNEERNLLSVAYKNVVGGRRSAWRVISSIEQKTDTSDKKLQLIKDYREKVESELRSICTTVLELLDKYLIANATNPESKVFYLKMKGDYFRYLAEVACGDDRKQTIENSQGAYQEAFDISKKEMQPTHPIRLGLALNFSVFYYEILNNPELACTLAKTAFDEAIAELDTLNEDSYKDSTLIMQLLRDNLTLWTSDSAGEECDAAEGAEN
# notes: also called 14-3-3 θ
# B7: Excitatory amino acid transporter 1 (Sodium-dependent glutamate/aspartate transporter) (GLAST) (other, mouse, UniProt P56564 1-543, looked up)
# chain: MTKSNGEEPRMGGRMERLQQGVRKRTLLAKKKVQSLTKEDVKSYLFRNAFVLLTVTAVIVGTILGFALRPYKMSYREVKYFSFPGELLMRMLQMLVLPLIISSLVTGMAALDSKASGKMGMRAVVYYMTTTIIAVVIGIIIVIIIHPGKGTKENMYREGKIVQVTAADAFLDLIRNMFPPNLVEACFKQFKTSYEKRSFKVPIQSNETLLGAVINNVSEAMETLTRIREEMVPVPGSVNGVNALGLVVFSMCFGFVIGNMKEQGQALREFFDSLNEAIMRLVAVIMWYAPLGILFLIAGKIVEMEDMGVIGGQLAMYTVTVIVGLLIHAVIVLPLLYFLVTRKNPWVFIGGLLQALITALGTSSSSATLPITFKCLEENNGVDKRITRFVLPVGATINMDGTALYEALAAIFIAQVNNFDLNFGQIITISITATAASIGAAGIPQAGLVTMVIVLTSVGLPTDDITLIIAVDWFLDRLRTTTNVLGDSLGAGIVEHLSRHELKNRDVEMGNSVIEENEMKKPYQLIAQDNEPEKPVADSETKM
# notes: also called EAA1_MOUSE
# B8: 2',3'-cyclic-nucleotide 3'-phosphodiesterase (CNPase) (enzyme, mouse, UniProt P16330 1-417, looked up)
# chain: MNTSFTRKSHTFLPKLFFRKMSSSGAKEKPELQFPFLQDEDTVATLHECKTLFILRGLPGSGKSTLARLILEKYHDGTKMVSADAYKIIPGSRADFSEAYKRLDEDLAGYCRRDIRVLVLDDTNHERERLDQLFEMADQYQYQVVLVEPKTAWRLDCAQLKEKNQWQLSADDLKKLKPGLEKDFLPLYFGWFLTKKSSETLRKAGQVFLEELGNHKAFKKELRHFISGDEPKEKLELVSYFGKRPPGVLHCTTKFCDYGKAAGAEEYAQQEVVKRSYGKAFKLSISALFVTPKTAGAQVVLTDQELQLWPSDLDKPSASEGLPPGSRAHVTLGCAADVQPVQTGLDLLDILQQVKGGSQGEAVGELPRGKLYSLGKGRWMLSLTKKMEVKAIFTGYYGKGKPVPIHGSRKGGAMQIC
# notes: also called CN37_MOUSE
# B9: 14-3-3 protein beta/alpha (Protein kinase C inhibitor protein 1) (KCIP-1) (other, mouse, UniProt Q9CQV8 1-246, looked up)
# chain: MTMDKSELVQKAKLAEQAERYDDMAAAMKAVTEQGHELSNEERNLLSVAYKNVVGARRSSWRVISSIEQKTERNEKKQQMGKEYREKIEAELQDICNDVLELLDKYLILNATQAESKVFYLKMKGDYFRYLSEVASGENKQTTVSNSQQAYQEAFEISKKEMQPTHPIRLGLALNFSVFYYEILNSPEKACSLAKTAFDEAIAELDTLNEESYKDSTLIMQLLRDNLTLWTSENQGDEGDAGEGEN
# notes: also called 14-3-3 β
# B10: Elongation factor 1-alpha 2 (EF-1-alpha-2) (Elongation factor 1 A-2) (eEF1A-2) (Statin S1) (other, mouse, UniProt P62631 2-463, looked up)
# chain: GKEKTHINIVVIGHVDSGKSTTTGHLIYKCGGIDKRTIEKFEKEAAEMGKGSFKYAWVLDKLKAERERGITIDISLWKFETTKYYITIIDAPGHRDFIKNMITGTSQADCAVLIVAAGVGEFEAGISKNGQTREHALLAYTLGVKQLIVGVNKMDSTEPAYSEKRYDEIVKEVSAYIKKIGYNPATVPFVPISGWHGDNMLEPSPNMPWFKGWKVERKEGNASGVSLLEALDTILPPTRPTDKPLRLPLQDVYKIGGIGTVPVGRVETGILRPGMVVTFAPVNITTEVKSVEMHHEALSEALPGDNVGFNVKNVSVKDIRRGNVCGDSKADPPQEAAQFTSQVIILNHPGQISAGYSPVIDCHTAHIACKFAELKEKIDRRSGKKLEDNPKSLKSGDAAIVEMVPGKPMCVESFSQYPPLGRFAVRDMRQTVAVGVIKNVEKKSGGAGKVTKSAQKAQKAGK
# notes: also called EF1A2_MOUSE
# B11: 14-3-3 protein eta (other, mouse, UniProt P68510 2-246, looked up)
# chain: GDREQLLQRARLAEQAERYDDMASAMKAVTELNEPLSNEDRNLLSVAYKNVVGARRSSWRVISSIEQKTMADGNEKKLEKVKAYREKIEKELETVCNDVLALLDKFLIKNCNDFQYESKVFYLKMKGDYYRYLAEVASGEKKNSVVEASEAAYKEAFEISKEHMQPTHPIRLGLALNFSVFYYEIQNAPEQACLLAKQAFDDAIAELDTLNEDSYKDSTLIMQLLRDNLTLWTSDQQDEEAGEGN
# notes: also called 14-3-3 η
# B12: Superoxide dismutase [Cu-Zn] (enzyme)
# chain: not shown
# B13: MKIAA0820 protein (Fragment) (other, mouse, UniProt Q8BZ98 1-863, looked up)
# chain: MGNREMEELIPLVNRLQDAFSALGQSCLLELPQIAVVGGQSAGKSSVLENFVGRDFLPRGSGIVTRRPLVLQLVTSKAEYAEFLHCKGKKFTDFDEVRHEIEAETDRVTGMNKGISSIPINLRVYSPHVLNLTLIDLPGITKVPVGDQPPDIEYQIRDMIMQFITRENCLILAVTPANTDLANSDALKLAKEVDPQGLRTIGVITKLDLMDEGTDARDVLENKLLPLRRGYVGVVNRSQKDIDGKKDIKAAMLAERKFFLSHPAYRHIADRMGTPHLQKVLNQQLTNHIRDTLPNFRNKLQGQLLSIEHEVEAFKNFKPEDPTRKTKALLQMVQQFAVDFEKRIEGSGDQVDTLELSGGAKINRIFHERFPFEIVKMEFNEKELRREISYAIKNIHGIRTGLFTPDMAFEAIVKKQIVKLKGPSLKSVDLVMQELINTVKKCTKRLANFPRLCEETERIVANHIREREGKTKDQVLLLIDIQVSYINTNHEDFIGFANAQQRSSQVHKKSTIGNQVIRKGWLTVSNIGIMKGGSKGYWFVLTAESLSWYKDDEEKEKKYMLPLDNLKVRDVEKGFMSSKHVFALFNTEQRNVYKDYRFLELACDSQEDVDSWKASLLRAGVYPDKSVGSNKTENDENGQAENFSMDPQLERQVETIRNLVDSYMSIINKCIRDLIPKTIMHLMINNVKDFINSELLAQLYSSEDQNTLMEESAEQAQRRDEMLRMYQALKEALAIIGDINTATVSTPAPPPVDDSWLQHSRRSPPPSPTTQRRLTISAPLPRPTSGRGPAPAIPSPGPHSGAPPVPFRPGPLPPFPNSSDSFGAPPQVPSRPTRAPPSVPSRRPPPSPTRPTIIRPLESSLLD
# notes: also called Q80TR2_MOUSE
# B14: ATP synthase e chain, mitochondrial (enzyme, mouse, UniProt Q06185 2-71, looked up)
# chain: VPPVQVSPLIKFGRYSALIIGMAYGAKRYSYLKPRAEEERRIAAEEKKRLDELKRIERELAEAQDDSILK
# notes: also called epsilon chain
# B15: Peroxiredoxin-5, mitochondrial precursor (Prx-V) (enzyme, mouse, UniProt P99029 49-210, looked up)
# chain: MAPIKVGDAIPSVEVFEGEPGKKVNLAELFKGKKGVLFGVPGAFTPGCSKTHLPGFVEQAGALKAKGAQVVACLSVNDVFVIEEWGRAHQAEGKVRLLADPTGAFGKATDLLLDDSLVSLFGNRRLKRFSMVIDNGIVKALNVEPDGTGLTCSLAPNILSQL
# notes: also called PRDX5_MOUSE
# Target: T1, APP-TAP-AICD (human, UniProt P05067 18-695)
# Assay: streptavidin purification of APP-TAP-AICD from brain homogenate; iTRAQ 116/114, transgenic mouse 75 vs control mouse 72; MALDI-TOF/TOF;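 note: relative protein abundance in the transgenic versus control pull-down, limited to proteins with high quality scores and above-average enrichment, without full normalization across the whole measurement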
row,iTRAQ ratio,Binder
1,3.39,B1
2,3.22,B2

# Target: T1, APP-TAP-AICD
# Assay: streptavidin purification of APP-TAP-AICD from brain homogenate; LTQ-FT semiquantitative method, transgenic mouse 75 vs control mouse 72
row,probability that this protein is enriched,Binder
1,0.88,B3
2,0.87,B4
3,1,B5
4,1,B6
5,1,B7
6,0.87,B8
7,1,B9
8,1,B10
9,1,B11
10,1,B12
11,1,B13
12,0.88,B14
13,1,B15
